B1: FUNDC2 (parent)
chain: YIKVDWQRVEKDMKKAKEQLKIRK
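Further: lentivirally expressed fusions sorted by FACS into six bins by GFP to DsRed ratio, PSI derived from sequencing read proportions per bin multiplied by bin number.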

Variants of: B1
Assay: protein stability index of a GFP-peptide fusion (GPS, HEK-293T) (PSI 1-6); higher = more stable
Conditions: c terminus: a fixed tail appended
For YIKVDWQRLEKDMKKAKEQLKIRK [V9L], the protein stability index was 2.04.
With YIKVDWQRNEKDMKKAKEQLKIRK [V9N] the protein stability index was 2.37.
Variant YIKVDWQREEKDMKKAKEQLKIRK [V9E] has a protein stability index of 2.56.
Work on YIKVDWQRTEKDMKKAKEQLKIRK [V9T] yielded a protein stability index of 1.66.
Work on YIKVDWQRCEKDMKKAKEQLKIRK [V9C] yielded a protein stability index of 1.94.
Variant YIKVDWQRQEKDMKKAKEQLKIRK [V9Q] has a protein stability index of 2.16.
With YIKVDWQRYEKDMKKAKEQLKIRK [V9Y] the protein stability index was 1.67.
In the case of YIKVDWQRFEKDMKKAKEQLKIRK [V9F], the protein stability index is reported as 1.54.
For YIKVDWQRREKDMKKAKEQLKIRK [V9R], the protein stability index was 1.73.
Work on YYKVDWQRVEKDMKKAKEQLKIRK [I2Y] yielded a protein stability index of 3.
Work on YIPVDWQRVEKDMKKAKEQLKIRK [K3P] yielded a protein stability index of 2.07.
YIGVDWQRVEKDMKKAKEQLKIRK [K3G] showed a protein stability index of 2.54.
YIHVDWQRVEKDMKKAKEQLKIRK [K3H] gave a protein stability index of 1.39.
In the case of YIAVDWQRVEKDMKKAKEQLKIRK [K3A], the protein stability index is reported as 2.13.
In the case of YIFVDWQRVEKDMKKAKEQLKIRK [K3F], the protein stability index is reported as 1.98.
Variant YIWVDWQRVEKDMKKAKEQLKIRK [K3W] has a protein stability index of 2.09.
Variant YIIVDWQRVEKDMKKAKEQLKIRK [K3I] has a protein stability index of 1.73.
Variant YILVDWQRVEKDMKKAKEQLKIRK [K3L] has a protein stability index of 1.67.
For YIRVDWQRVEKDMKKAKEQLKIRK [K3R], the protein stability index was 2.18.
For YIVVDWQRVEKDMKKAKEQLKIRK [K3V], the protein stability index was 2.79.
In the case of YIMVDWQRVEKDMKKAKEQLKIRK [K3M], the protein stability index is reported as 1.91.
In the case of YIYVDWQRVEKDMKKAKEQLKIRK [K3Y], the protein stability index is reported as 3.14.
Variant YIDVDWQRVEKDMKKAKEQLKIRK [K3D] has a protein stability index of 4.58.
Variant YICVDWQRVEKDMKKAKEQLKIRK [K3C] has a protein stability index of 2.86.
Variant YIEVDWQRVEKDMKKAKEQLKIRK [K3E] has a protein stability index of 2.4.
YISVDWQRVEKDMKKAKEQLKIRK [K3S] showed a protein stability index of 1.88.
YINVDWQRVEKDMKKAKEQLKIRK [K3N] gave a protein stability index of 2.22.
Variant YIKVDWDRVEKDMKKAKEQLKIRK [Q7D] has a protein stability index of 1.49.
Work on YIKVDWLRVEKDMKKAKEQLKIRK [Q7L] yielded a protein stability index of 2.01.
In the case of YIKVDWRRVEKDMKKAKEQLKIRK [Q7R], the protein stability index is reported as 1.43.
For YIKVDWCRVEKDMKKAKEQLKIRK [Q7C], the protein stability index was 2.41.
For YIKVDWTRVEKDMKKAKEQLKIRK [Q7T], the protein stability index was 1.73.
For YIKVDWPRVEKDMKKAKEQLKIRK [Q7P], the protein stability index was 1.37.
For YIKVDWFRVEKDMKKAKEQLKIRK [Q7F], the protein stability index was 2.84.
Work on YIKVDWHRVEKDMKKAKEQLKIRK [Q7H] yielded a protein stability index of 1.45.
In the case of YIKVDWVRVEKDMKKAKEQLKIRK [Q7V], the protein stability index is reported as 2.33.
Work on YIKVDWYRVEKDMKKAKEQLKIRK [Q7Y] yielded a protein stability index of 1.69.
Variant YIKVDWIRVEKDMKKAKEQLKIRK [Q7I] has a protein stability index of 2.7.
YIKVDWKRVEKDMKKAKEQLKIRK [Q7K] showed a protein stability index of 1.95.
YIKVDWNRVEKDMKKAKEQLKIRK [Q7N] gave a protein stability index of 2.47.
For YIKVDWGRVEKDMKKAKEQLKIRK [Q7G], the protein stability index was 2.9.
In the case of YIKVDWSRVEKDMKKAKEQLKIRK [Q7S], the protein stability index is reported as 1.76.
YIKVDWERVEKDMKKAKEQLKIRK [Q7E] gave a protein stability index of 1.92.
YIKVDWARVEKDMKKAKEQLKIRK [Q7A] gave a protein stability index of 1.79.
In the case of YIKVDWQRVFKDMKKAKEQLKIRK [E10F], the protein stability index is reported as 1.78.
With YIKVDWQRVYKDMKKAKEQLKIRK [E10Y] the protein stability index was 1.79.
Variant YIKVDWQRVVKDMKKAKEQLKIRK [E10V] has a protein stability index of 1.52.
In the case of YIKVDWQRVRKDMKKAKEQLKIRK [E10R], the protein stability index is reported as 1.27.
Work on YIKVDWQRVPKDMKKAKEQLKIRK [E10P] yielded a protein stability index of 1.77.
YIKVDWQRVQKDMKKAKEQLKIRK [E10Q] showed a protein stability index of 1.36.
YIKVDWQRVAKDMKKAKEQLKIRK [E10A] showed a protein stability index of 1.92.
In the case of YIKVDWQRVMKDMKKAKEQLKIRK [E10M], the protein stability index is reported as 1.73.
For YIKVDWQRVSKDMKKAKEQLKIRK [E10S], the protein stability index was 2.33.
For YIKVDWQRVKKDMKKAKEQLKIRK [E10K], the protein stability index was 1.73.
Variant YIKVDWQRVNKDMKKAKEQLKIRK [E10N] has a protein stability index of 1.62.
With YIKVDWQRVWKDMKKAKEQLKIRK [E10W] the protein stability index was 1.56.
With YIKVDWQRVDKDMKKAKEQLKIRK [E10D] the protein stability index was 1.85.
In the case of YIKVDWQRVLKDMKKAKEQLKIRK [E10L], the protein stability index is reported as 1.65.
Work on YIKVDWQRVGKDMKKAKEQLKIRK [E10G] yielded a protein stability index of 1.09.
YIKVDWQRVHKDMKKAKEQLKIRK [E10H] showed a protein stability index of 2.58.
Variant YIKVDWQRVTKDMKKAKEQLKIRK [E10T] has a protein stability index of 2.36.
In the case of YIKVDWQRVEKDPKKAKEQLKIRK [M13P], the protein stability index is reported as 1.17.
With YIKVDWQRVEKDAKKAKEQLKIRK [M13A] the protein stability index was 1.24.
Variant YIKVDWQRVEKDTKKAKEQLKIRK [M13T] has a protein stability index of 1.4.
Work on YIKVDWQRVEKDQKKAKEQLKIRK [M13Q] yielded a protein stability index of 1.82.
Work on YIKVDWQRVEKDHKKAKEQLKIRK [M13H] yielded a protein stability index of 1.82.
YIKVDWQRVEKDFKKAKEQLKIRK [M13F] gave a protein stability index of 1.79.
For YIKVDWQRVEKDLKKAKEQLKIRK [M13L], the protein stability index was 1.63.
With YIKVDWQRVEKDGKKAKEQLKIRK [M13G] the protein stability index was 2.32.
For YIKVDWQRVEKDSKKAKEQLKIRK [M13S], the protein stability index was 2.21.
For YIKVDWQRVEKDRKKAKEQLKIRK [M13R], the protein stability index was 2.29.
In the case of YIKVDWQRVEKDIKKAKEQLKIRK [M13I], the protein stability index is reported as 1.89.
Work on YIKVDWQRVEKDNKKAKEQLKIRK [M13N] yielded a protein stability index of 2.3.
With YIKVDWQRVEKDDKKAKEQLKIRK [M13D] the protein stability index was 1.83.
In the case of YIKVDWQRVEKDKKKAKEQLKIRK [M13K], the protein stability index is reported as 1.92.
Work on YIKVDWQRVEKDEKKAKEQLKIRK [M13E] yielded a protein stability index of 1.87.
YIKVDWQRVEKDCKKAKEQLKIRK [M13C] gave a protein stability index of 1.73.
YIKVMWQRVEKDMKKAKEQLKIRK [D5M] showed a protein stability index of 2.46.
YIKVAWQRVEKDMKKAKEQLKIRK [D5A] gave a protein stability index of 3.55.
YIKVGWQRVEKDMKKAKEQLKIRK [D5G] gave a protein stability index of 2.43.
In the case of YIKVRWQRVEKDMKKAKEQLKIRK [D5R], the protein stability index is reported as 1.78.
For YIKVPWQRVEKDMKKAKEQLKIRK [D5P], the protein stability index was 2.21.
Work on YIKVWWQRVEKDMKKAKEQLKIRK [D5W] yielded a protein stability index of 3.34.
In the case of YIKVHWQRVEKDMKKAKEQLKIRK [D5H], the protein stability index is reported as 1.64.
For YIKVSWQRVEKDMKKAKEQLKIRK [D5S], the protein stability index was 1.47.
In the case of YIKVKWQRVEKDMKKAKEQLKIRK [D5K], the protein stability index is reported as 2.1.
In the case of YIKVNWQRVEKDMKKAKEQLKIRK [D5N], the protein stability index is reported as 2.19.
In the case of YIKVFWQRVEKDMKKAKEQLKIRK [D5F], the protein stability index is reported as 2.33.
YIKVQWQRVEKDMKKAKEQLKIRK [D5Q] gave a protein stability index of 1.62.
Variant YIKVTWQRVEKDMKKAKEQLKIRK [D5T] has a protein stability index of 2.29.
In the case of YIKVLWQRVEKDMKKAKEQLKIRK [D5L], the protein stability index is reported as 2.48.
YIKVCWQRVEKDMKKAKEQLKIRK [D5C] showed a protein stability index of 1.03.
YIKVYWQRVEKDMKKAKEQLKIRK [D5Y] showed a protein stability index of 3.3.
Work on YIKVEWQRVEKDMKKAKEQLKIRK [D5E] yielded a protein stability index of 1.52.
